B1: A49MI-F3′-TriNKET-huAb13v1 (bispecific antibody, human IgG1, kappa)
scFv: DIQMTQSPSSLSASVGDRVTITCKASQNVGFNVAWYQQKPGKSPKALIYSASYRYSGVPSRFSGSGSGTDFTLTISSLQPEDFAEYFCQQYNWYPFTFGCGTKLEIKGGGGSGGGGSGGGGSGGGGSEVQLQESGPGLVKPSETLSLTCAVTGYSITSGYSWHWIRQFPGNCLEWMGYIHSSGSTNYNPSLKSRISISRDTSKNQFFLKLSSVTAADTAVYYCAGYDDYFEYWGQGTTVTVSSASDKTHTCPPCPAPELLGGPSVFLFPPKPKDTLMISRTPEVTCVVVDVSHEDPEVKFNWYVDGVEVHNAKTKPREEQYNSTYRVVSVLTVLHQDWLNGKEYKCKVSNKALPAPIEKTISKAKGQPREPRVYTLPPCRDELTKNQVSLTCLVKGFYPSDIAVEWESNGQPENNYKTTPPVLVSDGSFTLYSKLTVDKSRWQQGNVFSCSVMHEALHNHYTQKSLSLSPG
heavy: EVQLVESGGGLVKPGGSLRLSCAASGFTFSSYSMNWVRQAPGKGLEWVSSISSSSSYIYYADSVKGRFTISRDNAKNSLYLQMNSLRAEDTAVYYCARGAPIGAAAGWFDPWGQGTLVTVSSASTKGPSVFPLAPSSKSTSGGTAALGCLVKDYFPEPVTVSWNSGALTSGVHTFPAVLQSSGLYSLSSVVTVPSSSLGTQTYICNVNHKPSNTKVDKKVEPKSCDKTHTCPPCPAPELLGGPSVFLFPPKPKDTLMISRTPEVTCVVVDVSHEDPEVKFNWYVDGVEVHNAKTKPREEQYNSTYRVVSVLTVLHQDWLNGKEYKCKVSNKALPAPIEKTISKAKGQPREPQVCTLPPSRDELTENQVSLTCLVKGFYPSDIAVEWESNGQPENNYKTTPPVLDSDGSFFLYSWLTVDKSRWQQGNVFSCSVMHEALHNHYTQKSLSLSPG
light: DIQMTQSPSSVSASVGDRVTITCRASQGISSWLAWYQQKPGKAPKLLIYAASSLQSGVPSRFSGSGSGTDFTLTISSLQPEDFATYYCQQGVSFPRTFGGGTKVEIKRTVAAPSVFIFPPSDEQLKSGTASVVCLLNNFYPREAKVQWKVDNALQSGNSQESVTEQDSKDSTYSLSSTLTLSKADYEKHKVYACEVTHQGLSSPVTKSFNRGEC
notes: also called TriNKET bearing 13v1 B7-H3 targeting domain; B7-H3 TriNKET
B2: A49MI-F3′-TriNKET-Enoblituzumab (bispecific antibody, human IgG1, kappa)
scFv: DIQLTQSPSFLSASVGDRVTITCKASQNVDTNVAWYQQKPGKAPKALIYSASYRYSGVPSRFSGSGSGTDFTLTISSLQPEDFATYYCQQYNNYPFTFGCGTKLEIKGGGGSGGGGSGGGGSGGGGSEVQLVESGGGLVQPGGSLRLSCAASGFTFSSFGMHWVRQAPGKCLEWVAYISSDSSAIYYADTVKGRFTISRDNAKNSLYLQMNSLRDEDTAVYYCGRGRENIYYGSRLDYWGQGTTVTVSSASDKTHTCPPCPAPELLGGPSVFLFPPKPKDTLMISRTPEVTCVVVDVSHEDPEVKFNWYVDGVEVHNAKTKPREEQYNSTYRVVSVLTVLHQDWLNGKEYKCKVSNKALPAPIEKTISKAKGQPREPRVYTLPPCRDELTKNQVSLTCLVKGFYPSDIAVEWESNGQPENNYKTTPPVLVSDGSFTLYSKLTVDKSRWQQGNVFSCSVMHEALHNHYTQKSLSLSPG
heavy: EVQLVESGGGLVKPGGSLRLSCAASGFTFSSYSMNWVRQAPGKGLEWVSSISSSSSYIYYADSVKGRFTISRDNAKNSLYLQMNSLRAEDTAVYYCARGAPIGAAAGWFDPWGQGTLVTVSSASTKGPSVFPLAPSSKSTSGGTAALGCLVKDYFPEPVTVSWNSGALTSGVHTFPAVLQSSGLYSLSSVVTVPSSSLGTQTYICNVNHKPSNTKVDKKVEPKSCDKTHTCPPCPAPELLGGPSVFLFPPKPKDTLMISRTPEVTCVVVDVSHEDPEVKFNWYVDGVEVHNAKTKPREEQYNSTYRVVSVLTVLHQDWLNGKEYKCKVSNKALPAPIEKTISKAKGQPREPQVCTLPPSRDELTENQVSLTCLVKGFYPSDIAVEWESNGQPENNYKTTPPVLDSDGSFFLYSWLTVDKSRWQQGNVFSCSVMHEALHNHYTQKSLSLSPG
light: DIQMTQSPSSVSASVGDRVTITCRASQGISSWLAWYQQKPGKAPKLLIYAASSLQSGVPSRFSGSGSGTDFTLTISSLQPEDFATYYCQQGVSFPRTFGGGTKVEIKRTVAAPSVFIFPPSDEQLKSGTASVVCLLNNFYPREAKVQWKVDNALQSGNSQESVTEQDSKDSTYSLSSTLTLSKADYEKHKVYACEVTHQGLSSPVTKSFNRGEC
notes: also called TriNKET bearing Enoblituzumab B7-H3 targeting domain; B7-H3 TriNKET
B3: A49MI-F3′-TriNKET-huM30 (bispecific antibody, human IgG1, kappa)
scFv: EIVLTQSPATLSLSPGERATLSCRASSRLIYMHWYQQKPGQAPRPLIYATSNLASGIPARFSGSGSGTDFTLTISSLEPEDFAVYYCQQWNSNPPTFGCGTKVEIKGGGGSGGGGSGGGGSGGGGSQVQLVQSGAEVKKPGSSVKVSCKASGYTFTNYVMHWVRQAPGQCLEWMGYINPYNDDVKYNEKFKGRVTITADESTSTAYMELSSLRSEDTAVYYCARWGYYGSPLYYFDYWGQGTLVTVSSASDKTHTCPPCPAPELLGGPSVFLFPPKPKDTLMISRTPEVTCVVVDVSHEDPEVKFNWYVDGVEVHNAKTKPREEQYNSTYRVVSVLTVLHQDWLNGKEYKCKVSNKALPAPIEKTISKAKGQPREPRVYTLPPCRDELTKNQVSLTCLVKGFYPSDIAVEWESNGQPENNYKTTPPVLVSDGSFTLYSKLTVDKSRWQQGNVFSCSVMHEALHNHYTQKSLSLSPG
heavy: EVQLVESGGGLVKPGGSLRLSCAASGFTFSSYSMNWVRQAPGKGLEWVSSISSSSSYIYYADSVKGRFTISRDNAKNSLYLQMNSLRAEDTAVYYCARGAPIGAAAGWFDPWGQGTLVTVSSASTKGPSVFPLAPSSKSTSGGTAALGCLVKDYFPEPVTVSWNSGALTSGVHTFPAVLQSSGLYSLSSVVTVPSSSLGTQTYICNVNHKPSNTKVDKKVEPKSCDKTHTCPPCPAPELLGGPSVFLFPPKPKDTLMISRTPEVTCVVVDVSHEDPEVKFNWYVDGVEVHNAKTKPREEQYNSTYRVVSVLTVLHQDWLNGKEYKCKVSNKALPAPIEKTISKAKGQPREPQVCTLPPSRDELTENQVSLTCLVKGFYPSDIAVEWESNGQPENNYKTTPPVLDSDGSFFLYSWLTVDKSRWQQGNVFSCSVMHEALHNHYTQKSLSLSPG
light: DIQMTQSPSSVSASVGDRVTITCRASQGISSWLAWYQQKPGKAPKLLIYAASSLQSGVPSRFSGSGSGTDFTLTISSLQPEDFATYYCQQGVSFPRTFGGGTKVEIKRTVAAPSVFIFPPSDEQLKSGTASVVCLLNNFYPREAKVQWKVDNALQSGNSQESVTEQDSKDSTYSLSSTLTLSKADYEKHKVYACEVTHQGLSSPVTKSFNRGEC
notes: also called TriNKET bearing M30 B7-H3 targeting domain; B7-H3 TriNKET
B4: huM30 (Daiichi Sankyo, Inc.) parental monoclonal antibody (antibody, V domains shown)
VH: QVQLVQSGAEVKKPGSSVKVSCKASGYTFTNYVMHWVRQAPGQGLEWMGYINPYNDDVKYNEKFKGRVTITADESTSTAYMELSSLRSEDTAVYYCARWGYYGSPLYYFDYWGQGTLVTVSS
VL: EIVLTQSPATLSLSPGERATLSCRASSRLIYMHWYQQKPGQAPRPLIYATSNLASGIPARFSGSGSGTDFTLTISSLEPEDFAVYYCQQWNSNPPTFGQGTKVEIK
notes: also called parental mAb; B7-H3 parental monoclonal antibody
B5: Enoblituzumab (MacroGenics, Inc.) parental monoclonal antibody (antibody, V domains shown)
VH: EVQLVESGGGLVQPGGSLRLSCAASGFTFSSFGMHWVRQAPGKGLEWVAYISSDSSAIYYADTVKGRFTISRDNAKNSLYLQMNSLRDEDTAVYYCGRGRENIYYGSRLDYWGQGTTVTVSS
VL: DIQLTQSPSFLSASVGDRVTITCKASQNVDTNVAWYQQKPGKAPKALIYSASYRYSGVPSRFSGSGSGTDFTLTISSLQPEDFATYYCQQYNNYPFTFGQGTKLEIKR
notes: as for B4
B6: huAb13v1 (AbbVie Inc.) parental monoclonal antibody (antibody, V domains shown)
VH: EVQLQESGPGLVKPSETLSLTCAVTGYSITSGYSWHWIRQFPGNGLEWMGYIHSSGSTNYNPSLKSRISISRDTSKNQFFLKLSSVTAADTAVYYCAGYDDYFEYWGQGTTVTVSS
VL: DIQMTQSPSSLSASVGDRVTITCKASQNVGFNVAWYQQKPGKSPKALIYSASYRYSGVPSRFSGSGSGTDFTLTISSLQPEDFAEYFCQQYNWYPFTFGQGTKLEIK
notes: as for B4

The target of this test is T1, B7-H3 expressed on human cancer cell lines (786-O, BT-474, HCC1954) (human, UniProt Q5ZPR3 29-534).
T1 construct: The assay used B7-H3 expressed endogenously on the cell lines; also called CD276; cell expressed B7-H3
T1 sequence: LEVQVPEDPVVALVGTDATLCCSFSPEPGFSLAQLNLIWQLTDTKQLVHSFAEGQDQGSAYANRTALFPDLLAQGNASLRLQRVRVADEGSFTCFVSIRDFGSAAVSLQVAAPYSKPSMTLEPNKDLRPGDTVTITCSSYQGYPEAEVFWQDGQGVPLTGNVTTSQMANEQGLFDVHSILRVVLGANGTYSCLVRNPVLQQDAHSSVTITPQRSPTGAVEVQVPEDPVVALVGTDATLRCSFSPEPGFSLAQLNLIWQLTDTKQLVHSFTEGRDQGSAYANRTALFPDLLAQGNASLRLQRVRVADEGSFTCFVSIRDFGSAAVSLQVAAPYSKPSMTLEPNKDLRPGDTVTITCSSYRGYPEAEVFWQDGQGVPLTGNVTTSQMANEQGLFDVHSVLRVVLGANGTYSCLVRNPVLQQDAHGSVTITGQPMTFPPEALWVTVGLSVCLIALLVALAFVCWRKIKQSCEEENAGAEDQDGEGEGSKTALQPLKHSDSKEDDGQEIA
Put plainly: flow cytometry on 786-O, BT-474 and HCC1954 cells, anti-human IgG detection. The protocol: Human cancer cell lines expressing B7-H3 were used to assess tumor antigen binding of TriNKETs derived from B7-H3 targeting clones. Human breast cancer cell lines BT-474 and HCC1954 and renal cancer cell line 786-O were used to assess binding of TriNKETs to cell expressed B7-H3. Varying concentrations of either TriNKET or monoclonal antibody were allowed to bind cells for 20 minutes on ice, after which cells were washed and the amount of bound TriNKET/monoclonal antibody was measured using fluorophore conjugated anti-human IgG secondary antibody. Cells were then analyzed by flow cytometry and binding MFI to cell expressed B7-H3 was plotted against varying concentration.
A general note: A flow cytometer gives signals particle by particle.
Consider B1, for which the binding result was “binds”. As to B2, the binding result is on record as “binds”.

Regarding B3, the binding result is listed as “binds”. Regarding B4, the binding result is “binds”. B5: the binding result is given as “binds”. As for B6, the binding result is on record as “binds”.

(Values after patent publication US20210206859A1 (DRAGONFLY THERAPEUTICS, published 2021).)
